Measured values taken from patent US20260049134A1 (UNIVERSITY OF FLORIDA RESEARCH FOUNDATION, published 2026).

T1: IL13RA1
T1 construct: coated protein in the ELISA; also called IL13RA1-Fc-His (R&D Systems)
T1 chain: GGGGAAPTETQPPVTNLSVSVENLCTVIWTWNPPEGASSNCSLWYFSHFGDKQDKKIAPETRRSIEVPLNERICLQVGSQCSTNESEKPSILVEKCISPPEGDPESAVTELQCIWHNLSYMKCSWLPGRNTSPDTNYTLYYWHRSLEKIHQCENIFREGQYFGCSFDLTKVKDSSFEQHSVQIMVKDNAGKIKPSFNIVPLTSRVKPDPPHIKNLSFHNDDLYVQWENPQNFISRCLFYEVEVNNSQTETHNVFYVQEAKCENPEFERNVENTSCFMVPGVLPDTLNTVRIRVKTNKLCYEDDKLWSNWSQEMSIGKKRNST

T2: GARS-His (Sino Biological) (human, UniProt P41250 37-739, limits assumed)
T2 construct: Bought; also called GARS1; glycyl-tRNA synthetase; not shown: His tag of the bought protein
T2 sequence: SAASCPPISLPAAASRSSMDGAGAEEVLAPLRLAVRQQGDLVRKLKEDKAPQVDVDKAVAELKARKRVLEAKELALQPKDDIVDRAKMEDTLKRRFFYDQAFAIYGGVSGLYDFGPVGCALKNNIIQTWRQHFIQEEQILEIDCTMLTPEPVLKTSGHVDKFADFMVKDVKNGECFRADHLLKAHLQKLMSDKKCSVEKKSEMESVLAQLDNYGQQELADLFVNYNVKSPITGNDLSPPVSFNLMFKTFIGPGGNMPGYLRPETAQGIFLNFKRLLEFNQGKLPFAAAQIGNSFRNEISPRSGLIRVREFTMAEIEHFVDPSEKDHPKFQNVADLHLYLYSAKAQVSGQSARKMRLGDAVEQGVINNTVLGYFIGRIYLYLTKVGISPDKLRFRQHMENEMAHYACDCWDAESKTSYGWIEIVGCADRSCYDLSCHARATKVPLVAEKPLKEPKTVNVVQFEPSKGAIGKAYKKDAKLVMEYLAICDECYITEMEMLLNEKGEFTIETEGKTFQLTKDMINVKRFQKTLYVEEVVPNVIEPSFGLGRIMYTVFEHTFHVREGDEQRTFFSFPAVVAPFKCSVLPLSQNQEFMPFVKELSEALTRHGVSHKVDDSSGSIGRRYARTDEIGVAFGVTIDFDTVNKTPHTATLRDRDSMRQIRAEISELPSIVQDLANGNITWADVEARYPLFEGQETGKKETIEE

T3: DCC
T3 construct: coated protein in the ELISA; also called DCC-His (R&D Systems)
T3 chain: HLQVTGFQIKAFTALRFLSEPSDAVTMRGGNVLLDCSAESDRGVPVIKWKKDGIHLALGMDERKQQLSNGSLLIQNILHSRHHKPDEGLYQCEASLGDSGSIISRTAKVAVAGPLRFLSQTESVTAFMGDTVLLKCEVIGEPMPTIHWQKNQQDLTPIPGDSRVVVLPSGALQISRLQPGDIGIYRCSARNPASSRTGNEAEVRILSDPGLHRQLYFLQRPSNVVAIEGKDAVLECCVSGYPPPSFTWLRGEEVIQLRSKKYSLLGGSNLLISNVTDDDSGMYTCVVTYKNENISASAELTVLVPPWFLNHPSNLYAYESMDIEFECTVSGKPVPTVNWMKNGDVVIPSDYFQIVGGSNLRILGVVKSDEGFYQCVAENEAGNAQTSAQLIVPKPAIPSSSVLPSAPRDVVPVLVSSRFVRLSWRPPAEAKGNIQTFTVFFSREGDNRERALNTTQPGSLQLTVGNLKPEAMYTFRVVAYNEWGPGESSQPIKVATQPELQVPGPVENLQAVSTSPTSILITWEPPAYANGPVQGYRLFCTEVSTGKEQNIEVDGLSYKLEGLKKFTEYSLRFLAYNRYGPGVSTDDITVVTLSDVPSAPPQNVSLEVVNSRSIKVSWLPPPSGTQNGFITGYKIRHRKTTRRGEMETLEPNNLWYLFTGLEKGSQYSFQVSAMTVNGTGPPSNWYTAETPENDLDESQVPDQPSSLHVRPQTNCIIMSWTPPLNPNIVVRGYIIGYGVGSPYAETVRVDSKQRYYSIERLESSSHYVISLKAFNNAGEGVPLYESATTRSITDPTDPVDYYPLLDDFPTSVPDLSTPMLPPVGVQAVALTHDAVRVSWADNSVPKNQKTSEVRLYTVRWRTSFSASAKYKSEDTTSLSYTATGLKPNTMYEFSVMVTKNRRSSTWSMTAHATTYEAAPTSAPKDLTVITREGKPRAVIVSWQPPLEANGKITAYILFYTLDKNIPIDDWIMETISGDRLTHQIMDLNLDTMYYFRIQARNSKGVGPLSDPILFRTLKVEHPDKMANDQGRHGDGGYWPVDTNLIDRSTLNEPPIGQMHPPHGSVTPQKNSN

T4: GARS, endogenous in H929 multiple myeloma cells (human, UniProt P41250 37-739, limits assumed)
T4 construct: Native protein pulled down from H929 lysates; also called Glycyl-tRNA synthetase; GlyRS
T4 sequence: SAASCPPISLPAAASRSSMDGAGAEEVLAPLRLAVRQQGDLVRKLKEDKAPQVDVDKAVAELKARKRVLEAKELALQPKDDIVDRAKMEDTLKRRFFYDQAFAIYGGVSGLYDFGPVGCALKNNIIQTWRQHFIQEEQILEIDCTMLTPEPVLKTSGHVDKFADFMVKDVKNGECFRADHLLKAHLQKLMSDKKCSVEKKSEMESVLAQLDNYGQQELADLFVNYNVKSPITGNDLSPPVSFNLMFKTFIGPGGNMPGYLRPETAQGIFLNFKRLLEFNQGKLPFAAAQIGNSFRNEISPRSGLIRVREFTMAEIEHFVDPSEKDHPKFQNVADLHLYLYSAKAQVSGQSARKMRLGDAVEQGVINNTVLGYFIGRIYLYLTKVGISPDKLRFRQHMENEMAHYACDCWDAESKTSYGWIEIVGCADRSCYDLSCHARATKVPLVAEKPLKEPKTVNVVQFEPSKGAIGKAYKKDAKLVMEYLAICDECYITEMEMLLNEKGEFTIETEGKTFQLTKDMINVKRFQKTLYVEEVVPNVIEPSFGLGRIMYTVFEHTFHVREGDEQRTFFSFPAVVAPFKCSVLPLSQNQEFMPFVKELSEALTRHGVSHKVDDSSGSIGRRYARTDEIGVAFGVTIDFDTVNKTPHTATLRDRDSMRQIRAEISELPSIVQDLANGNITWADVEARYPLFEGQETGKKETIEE


How the values were obtained:
IL13RA1 = molecular target: T1, IL13RA1; experiment: ELISA on coated IL13RA1-Fc-His, 150 ng IgG1; None 0.094
Method: (§1) Recombinant purified ECDs (50-150 ng) of each putative target protein were coated, incubated with 150 ng of the indicated primary antibody, and binding was detected using a peroxidase-conjugated anti-human Fab secondary antibody. Heatmap represents averages of technical triplicates. (8B) Target validation via siRNA knockdown. H929 cells were transfected with siRNA pools targeting the putative antibody targets ICAM1, CADM1, and PTPRG. Cells were then subjected to cognate IgG binding analysis via flow cytometry. (NT, non-targeting siRNA).
(§2) ELISA ELISA was conducted as described previously. Briefly, 50-150 ng of antigen was coated overnight in half-area 96-well plates at 4° C., blocked with 3% BSA at 37° C. for 1 h, and 150 ng of chimeric rabbit/human IgG1 was added, incubating for 2 h at 37° C. […] After incubating at 37° C. for 15 min-1 h (depending on intensity of controls), data were acquired using a SpectraMax M5 plate reader (Molecular Devices).

[1] = molecular target: T2, GARS-His (Sino Biological); experiment: ELISA on coated GARS-His, 150 ng IgG1; None 0.099
Method: as §1, §2

DCC = molecular target: T3, DCC; experiment: ELISA on coated DCC-His
Method: as §1, §2

[2] = molecular target: T4, GARS, endogenous in H929 multiple …; experiment: flow cytometry, H929 + CADM1 siRNA; None 0.89; surface target GARS putative
[3] = molecular target: T4, GARS, endogenous in H929 multiple …; experiment: flow cytometry, H929 + vehicle; None 2.74; surface target GARS putative

ELISA Absorbance (405 nm-570 nm) (IL13RA1) | ELISA Absorbance (405 nm-570 nm) [1] | Cells stained (%) [2] [%] | Cells stained (%) [3] [%] | Binder | binding result (DCC)
0.16 | 0.651 | 99.6 | 99.5 | HW-56 chimeric rabbit-human IgG1 LA/LA/PG (antibody, V domains shown, Fc-silenced (L234A/L235A/P329G) IgG1, kappa; Alexa Fluor 647-labeled in single-step flow cytometry; Cluster C-45) VH: QSVKESEGGLFKPTDTLTLTCTASGFTVSTNAVTWVRQAPGNGLEYIGTIGRSGSAYFASWAKRRSTLTRDINLNTVTLKMTSLTAADTATYFCVRGSPGYRTAISIWGPGTLVTISS VL: AVMTQTPSSTSAAVEGTVTINCQASQSISNRLSWFQQKPGQPPKLLIYQASTLASGVPSRFKGSGSGTEFTLTISGVQREDAATYYCLGSYSSSDASFGGGTKLEIKR | no binding (tested: 150 ng IgG1 per well)
0.099 | 0.641 | 99.8 | 99.7 | HW-81 chimeric rabbit-human IgG1 LA/LA/PG (antibody, V domains shown, Fc-silenced (L234A/L235A/P329G) IgG1, lambda; Alexa Fluor 647-labeled in single-step flow cytometry; Cluster C-45) VH: QKQLVESGGGLVTPGGTLTLTCTVSGFSLSSNGVSWVRQAPGKGLEYIGLIRSIGSTYYATWAKGRFTISKTSTTVDLKITSPTTEDTATYFCARGGYRNGFKLWGPGTLVTVSS VL: QPVLTQSPSVSAALGASAKLTCTLSSAHKTYYIEWYQQQHPGKAPRYLMQLQSDGSYTKGTGVPDRFSGSSSGADRYLIISSVQAEDEADYICGVIDSAVYVFGGGTQLTVTG | no binding (tested: 150 ng IgG1 per well)
0.077 | 0.081 | 89.3 | 84.7 | HW-8 chimeric rabbit-human IgG1 LA/LA/PG (antibody, V domains shown, Fc-silenced (L234A/L235A/P329G) IgG1, kappa; Alexa Fluor 647-labeled in single-step flow cytometry; Cluster C-45) VH: QSLEESGGRLVTPGTPLTLTCTVSGFSLSSYAMSWVRQAPGKGLEWIGAISTGGSTTYASWAKGRFTISKTSSTTVDLKMTSLTTEDTATYFCVRHFRLWGPGTLVTISS VL: QVLTQTPSSVSAAVGGTVTIKCQASQSIGSALAWFQQKPGQRPKLLIYRASNLASGVPSRFKGSGSGTEFALTISGVQREDAATYYCLGGAAAVWAFGAGTNVEIKR | no binding (tested: 150 ng IgG1 per well)
